Columns and labels:
[1] = oligomer EMSA, 293T, loading adapted to STAT5 activity; conditions: glycan lost; control: constructs without T92A
[2] = total STAT5 immunoblot, Ba/F3; conditions: glycan lost; control: cS5
[3] = pYSTAT5 immunoblot, Ba/F3 cells ± IL-3; conditions: glycan lost; control: cS5
[4] = pYSTAT5 immunoblot time course after IL-3 withdrawal, Ba/F3; conditions: glycan lost; control: cS5
[5] = immunoblot, 293T with EpoR, EPO stimulation; conditions: glycan lost; control: matching construct without T92A (S5, cS5)
[6] = phospho-serine immunoblot, Ba/F3; conditions: glycan lost; control: cS5

B1: STAT5A (S5; hyperactive variant cS5): T92A (protein)
parent chain: MAGWIQAQQLQGDALRQMQVLYGQHFPIEVRHYLAQWIESQPWDAIDLDNPQDRGQATQLLEGLVQELQKKAEHQVGEDGFLLKIKLGHYATQLQNTYDRCPMELVRCIRHILYNEQRLVREANNCSSPAGVLVDAMSQKHLQINQRFEELRLITQDTENELKKLQQTQEYFIIQYQESLRIQAQFAQLGQLNPQERMSRETALQQKQVSLETWLQREAQTLQQYRVELAEKHQKTLQLLRKQQTIILDDELIQWKRRQQLAGNGGPPEGSLDVLQSWCEKLAEIIWQNRQQIRRAEHLCQQLPIPGPVEEMLAEVNATITDIISALVTSTFIIEKQPPQVLKTQTKFAATVRLLVGGKLNVHMNPPQVKATIISEQQAKSLLKNENTRNECSGEILNNCCVMEYHQATGTLSAHFRNMSLKRIKRADRRGAESVTEEKFTVLFESQFSVGSNELVFQVKTLSLPVVVIVHGSQDHNATATVLWDNAFAEPGRVPFAVPDKVLWPQLCEALNMKFKAEVQSNRGLTKENLVFLAQKLFNISSNHLEDYNSMSVSWSQFNRENLPGWNYTFWQWFDGVMEVLKKHHKPHWNDGAILGFVNKQQAHDLLINKPDGTFLLRFSDSEIGGITIAWKFDSPDRNLWNLKPFTTRDFSIRSLADRLGDLNYLIYVFPDRPKDEVFAKYYTPVLAKAVDGYVKPQIKQVVPEFVNASTDAGASATYMDQAPSPVVCPQPHYNMYPPNPDPVLDQDGEFDLDESMDVARHVEELLRRPMDSLDARLSPPAGLFTSARSSLS
In the case of B1, the oligomerisation [1] is reported as “no change”.

B2: STAT5A (S5; hyperactive variant cS5): cS5-T92A (protein)
parent chain: MAGWIQAQQLQGDALRQMQVLYGQHFPIEVRHYLAQWIESQPWDAIDLDNPQDRGQATQLLEGLVQELQKKAEHQVGEDGFLLKIKLGHYATQLQNTYDRCPMELVRCIRHILYNEQRLVREANNCSSPAGVLVDAMSQKHLQINQRFEELRLITQDTENELKKLQQTQEYFIIQYQESLRIQAQFAQLGQLNPQERMSRETALQQKQVSLETWLQREAQTLQQYRVELAEKHQKTLQLLRKQQTIILDDELIQWKRRQQLAGNGGPPEGSLDVLQSWCEKLAEIIWQNRQQIRRAEHLCQQLPIPGPVEEMLAEVNATITDIISALVTSTFIIEKQPPQVLKTQTKFAATVRLLVGGKLNVHMNPPQVKATIISEQQAKSLLKNENTRNECSGEILNNCCVMEYHQATGTLSAHFRNMSLKRIKRADRRGAESVTEEKFTVLFESQFSVGSNELVFQVKTLSLPVVVIVHGSQDHNATATVLWDNAFAEPGRVPFAVPDKVLWPQLCEALNMKFKAEVQSNRGLTKENLVFLAQKLFNISSNHLEDYNSMSVSWSQFNRENLPGWNYTFWQWFDGVMEVLKKHHKPHWNDGAILGFVNKQQAHDLLINKPDGTFLLRFSDSEIGGITIAWKFDSPDRNLWNLKPFTTRDFSIRSLADRLGDLNYLIYVFPDRPKDEVFAKYYTPVLAKAVDGYVKPQIKQVVPEFVNASTDAGASATYMDQAPSPVVCPQPHYNMYPPNPDPVLDQDGEFDLDESMDVARHVEELLRRPMDSLDARLSPPAGLFTSARSSLS
For B2, the expression_or_secretion [2] was “no change”, the “other: tyrosine phosphorylation (pYSTAT5)” value (from here on “other … (pYSTAT5)”) [3] was “decreases” and the “other: persistence of tyrosine phosphorylation” value [4] was “decreases”. For the same protein, the “other … (pYSTAT5)” value [5] was “no change” and the “other: serine 725/779 phosphorylation” value [6] was “no change”.

B3: STAT5A (S5; hyperactive variant cS5): S5-T92A (protein)
parent chain: MAGWIQAQQLQGDALRQMQVLYGQHFPIEVRHYLAQWIESQPWDAIDLDNPQDRGQATQLLEGLVQELQKKAEHQVGEDGFLLKIKLGHYATQLQNTYDRCPMELVRCIRHILYNEQRLVREANNCSSPAGVLVDAMSQKHLQINQRFEELRLITQDTENELKKLQQTQEYFIIQYQESLRIQAQFAQLGQLNPQERMSRETALQQKQVSLETWLQREAQTLQQYRVELAEKHQKTLQLLRKQQTIILDDELIQWKRRQQLAGNGGPPEGSLDVLQSWCEKLAEIIWQNRQQIRRAEHLCQQLPIPGPVEEMLAEVNATITDIISALVTSTFIIEKQPPQVLKTQTKFAATVRLLVGGKLNVHMNPPQVKATIISEQQAKSLLKNENTRNECSGEILNNCCVMEYHQATGTLSAHFRNMSLKRIKRADRRGAESVTEEKFTVLFESQFSVGSNELVFQVKTLSLPVVVIVHGSQDHNATATVLWDNAFAEPGRVPFAVPDKVLWPQLCEALNMKFKAEVQSNRGLTKENLVFLAQKLFNISSNHLEDYNSMSVSWSQFNRENLPGWNYTFWQWFDGVMEVLKKHHKPHWNDGAILGFVNKQQAHDLLINKPDGTFLLRFSDSEIGGITIAWKFDSPDRNLWNLKPFTTRDFSIRSLADRLGDLNYLIYVFPDRPKDEVFAKYYTPVLAKAVDGYVKPQIKQVVPEFVNASTDAGASATYMDQAPSPVVCPQPHYNMYPPNPDPVLDQDGEFDLDESMDVARHVEELLRRPMDSLDARLSPPAGLFTSARSSLS
For B3, the “other … (pYSTAT5)” value [5] was “no change”.

— article PMC5629373
